# Measured values reported in article PMC11528428.
# Molecular target: CD3ζ subunit of the T cell receptor (TCR) in nonactivated Jurkat T cells (human (endogenous in Jurkat)) (UniProt P20963)
# Test: single-molecule localization microscopy (DNA-PAINT with qPAINT counting); nonactivated Jurkat T cells, TIRF; stepwise model: Ka,j of a monomer joining a cluster of j-1 proteins, from the distribution of cluster sizes, j = 2 to 8, average of eight cells
substance,measurement,value
CD3ζ subunit of the T cell receptor (TCR) in nonactivated Jurkat T cells (from UniProt P20963-1 22-164),"log Ka,j (stepwise association of a monomer to a cluster, j = 2-8) (log, μm^2 scale)",-1.4
